# System: human osteosarcoma cells, MG63
# Test: Tumor cell recoding via quantification of pRB and p53 (immunofluorescence staining, ImageJ)
# Assay type: cell-based
# Details: Table 6; peptide in association with PET; MG63 cells
# Experimental: The cells were first fixed for 20 min with 4% paraformaldehyde/PBS at 4° C. After fixation, the cells were permeabilized in PBS containing 1% Triton X-100 for 15 min. Protein immunofluorescent visualization was performed by first treating the cells with 1% (v/v) specific monoclonal antibodies for 1 hour at 37° C. Then the samples were incubated with Alexa Fluor® 568 or 647 (F(ab′)2 fragment of IgG(H+L)) during 30 min at room temperature. The cell nuclei were counterstained in 20 ng/mL DAPI for 10 min at room temperature.
# For this type of quantification the freeware image analysis ImageJ® software was used. The raw image was first converted to an 8-bit file, and then the unsharp mask feature was used (settings 1:0.2) to remove the image background (rolling ball radius 10). After smoothing, the resulting image, which appears similar to the original photomicrograph but with minimal background, was then converted to a binary image by setting a threshold. Threshold values were determined empirically by selecting a setting, which gave the most accurate binary image for a subset of randomly selected photomicrographs. The cell area was determined by manual delineation on raw fluorescent images. Total contact area and mean contact area per cell were calculated by “analyse particules” in ImageJ®. A minimum of 50 cells per condition were analyzed.
# Neoplastic cells (in this example osteosarcoma cells) were cultured on pharmaceutical associations comprising PET as a bioactive carrier and one of GFR-binding compounds of SEQ ID NO: 11 to 14, 24 to 26 and 51 to 63. A rapid (24 hours) decrease of the tumor markers was observed (FIG. 7). The adhesion checkpoint then activates the tumor suppressor proteins p53 and pRB. […]
Molecule,P53 (%),pRB (%)
STPPTSSVPTELSPISTLYK (Non-cyclic GFR-binding peptide) [SEQ ID NO: 205],41%,20%
RVPSTSSVPTGQSAISTLYL (Non-cyclic GFR-binding peptide) [SEQ ID NO: 202],25%,10%
KIPKASSVSQKMEPLTMLYY (Non-cyclic GFR-binding peptide) [SEQ ID NO: 208],30%,12%
AASKASSVPQEEEPLPMVYY (Non-cyclic GFR-binding peptide) [SEQ ID NO: 207],24%,17%
NDEGLESVPEDLSSLSVLFF (Non-cyclic GFR-binding peptide) [SEQ ID NO: 201],29%,12%
GIPEPSSAPVDLKPLSTLYV (Non-cyclic GFR-binding peptide) [SEQ ID NO: 206],32%,12%
RVPSTSSAPTKMNAISMLYF (Non-cyclic GFR-binding peptide) [SEQ ID NO: 203],31%,9%
GIPEPSSAPTELSATSILYY (Non-cyclic GFR-binding peptide) [SEQ ID NO: 204],33%,16%
KIPKASSVPTGGSNITVQIM (Non-cyclic GFR-binding peptide) [SEQ ID NO: 209],45%,11%

# Biological target: growth factor receptors
# Test: cell-based or functional assay
# Details: not given
row,p-Smad1/5/8 (%),Molecule
1,40%,ASASPSSVSQDLSSLSILFF [GFR-binding compound of SEQ ID NO: 68]
2,67%,AVPKASSAPTKLEPISILYL [GFR-binding compound of SEQ ID NO: 70]
3,32%,KIPKASSVPTELSPISVLYK [GFR-binding compound of SEQ ID NO: 87]
4,27%,NDEGLESVPTEESSLSILFF [GFR-binding compound of SEQ ID NO: 80]
5,38%,YVPKPSSTPTKLSPINMLYF [GFR-binding compound of SEQ ID NO: 66]
6,44%,KIPKASSVPQELEPLPIVYY [GFR-binding compound of SEQ ID NO: 74]
7,39%,VVPKPSSAPTQLEPISILYL [GFR-binding compound of SEQ ID NO: 69]
8,66%,YVPKPSSAPTKLNAISVLYF [GFR-binding compound of SEQ ID NO: 99]
9,36%,VSQDLRSVKVAKV [GFR-binding compound of SEQ ID NO: 89]
10,55%,NDEGLESVPTEERSVKVAKV [GFR-binding compound of SEQ ID NO: 91]
11,58%,NDEGLESVPTEEEPLTILYY [GFR-binding compound of SEQ ID NO: 79]
12,26%,RNVQSRPVPTQLSPISVLYK [GFR-binding compound of SEQ ID NO: 86]
13,37%,ASAAPSSVPQALRSVKVAKV [GFR-binding compound of SEQ ID NO: 88]
14,33%,KVGKASSVPQKLEPLPIVYY [GFR-binding compound of SEQ ID NO: 84]
15,51%,GIPEPSSVPQKMEPLPIVYY [GFR-binding compound of SEQ ID NO: 75]
16,52%,ASASPSSVSQDLEPLTILYY [GFR-binding compound of SEQ ID NO: 78]
17,35%,TVPKPSSAPTQLRSVKVAKV [GFR-binding compound of SEQ ID NO: 83]
18,37%,SIPKASSTPTELSPINMLYF [GFR-binding compound of SEQ ID NO: 64]
19,78%,NDEGLESVPTEESAISMLYL [GFR-binding compound of SEQ ID NO: 96]

row,p-Smad1/5/8 (%),Molecule
1,39%,GIPEPSSTPTKMSPINMLYF [GFR-binding compound of SEQ ID NO: 94]
2,22%,KASKASSVPQKLEPLPIVYY [GFR-binding compound of SEQ ID NO: 85]
3,41%,ASAAPSSAPTALSATSVLYY [GFR-binding compound of SEQ ID NO: 82]
4,47%,KIPKASSTPTELSPINMLYF [GFR-binding compound of SEQ ID NO: 93]
5,66%,KVGKASSVPTKLEPISILYL [GFR-binding compound of SEQ ID NO: 71]
6,52%,VPTGQSAISMLYL [GFR-binding compound of SEQ ID NO: 95]
7,38%,ASAAPSSVPQALSSLSILFF [GFR-binding compound of SEQ ID NO: 67]
8,48%,RNVQSRPTQVQLKPLSMLYV [GFR-binding compound of SEQ ID NO: 73]
9,34%,RVPSTSSAPTKTSATSVLYY [GFR-binding compound of SEQ ID NO: 81]
10,56%,ASASPSSVPQDLRSVKVAKV [GFR-binding compound of SEQ ID NO: 90]
11,54%,SIPKASSVPQELEPLPIVYY [GFR-binding compound of SEQ ID NO: 76]
12,34%,RNVQSRPTQVQLSPISILFI [GFR-binding compound of SEQ ID NO: 98]
13,44%,TQVKMRPVQVRKI [GFR-binding compound of SEQ ID NO: 92]
14,39%,SSVKSQPSRVHHSPISILFI [GFR-binding compound of SEQ ID NO: 97]
15,75%,HVPKPSSAPTKLEPISILYL [GFR-binding compound of SEQ ID NO: 100]
16,36%,TKPTSTPTKLSPINMLYF [GFR-binding compound of SEQ ID NO: 65]
17,55%,ASAAPSSVPQALEPLTILYY [GFR-binding compound of SEQ ID NO: 77]
18,47%,SSVKSQPSRVHHKPLSMLYV [GFR-binding compound of SEQ ID NO: 72]

# Reference: patent US20220273759A1, “PHARMACEUTICAL ASSOCIATION FOR CONVERTING A NEOPLASTIC CELL INTO A NON-NEOPLASTIC CELL AND USES THEREOF” (HISTIDE AG, priority 2015, published 2022)
